Assay results as given in the supplement of paper PMC9170038.

Test system: MS2 coat protein
Test: apparent KD of MS2 coat protein; higher = weaker reporter binding
Conditions: Eterna round: R107
Procedure, shortened: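 For every design, apparent KD is the median of normalised binding-curve fits from its clusters. The RNA switches were transcribed on-chip from Illumina sequencing clusters and titrated with SNAP-549-labelled MS2 coat protein (twofold steps, 0.7 or 1.5 nM to 3 µM; 0.8–1.5 h to 10–20 min per step). Titrations used 100 mM Tris-HCl pH 7.5, 80 mM KCl, 4 mM MgCl2, without or with constant ligand.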

[1] = input ligand: theophylline 20 uM
[2] = input ligand: theophylline 2 mM
[3] = input ligand: tryptophan 2.4 mM

| Sequence | apparent KD of MS2 coat protein (input ligand: arginine 13.2 mM) [nM] | apparent KD of MS2 coat protein (input ligand: none) [nM] | apparent KD of MS2 coat protein [1] [nM] | apparent KD of MS2 coat protein [2] [nM] | apparent KD of MS2 coat protein [3] [nM] |
| --- | --- | --- | --- | --- | --- |
| UUAAUCAUAUUAGAAAACUAAUAUGCAGAAGGAGCGUGAUAAAACACAGGUAGGUCGCUGAAGGGAACAUGAGGAUCACCCAUGU [AstrosSSArgA#8] | 26.5 | 25.7 | 32.7 | 33 | 26 |
| AUGGCGUUGGUGGAGCGGUGAAAUGGCGAUACCAGCGUGGAAACACGCCCUUGGCAGCGCCAAAACAUGAGGAUCACCCAUGUUA [Usti] | 18.9 | 20.3 | 46 | 59.8 | 18.1 |
| GGAUAGGACACGGCCGCCACUAGCUAGGAUACUAGCAACAUUUCCUCACAUGAGGAUCACCCAUGUAGGACCGGGUGUCCUAUCG | 79.9 |  | 145 | 112 |  |
| AACAGGGCUCGCACGAAGCCCUAAGGUGAUACCAGCACAUGUAAGUGCCCUUGGCAGCACGGUACAUGAGGAUCACCCAUGUAGA [Isleenen] | 19.7 |  | 182 |  | 59.4 |
| GGACUAACUCGAAGGAGCGACGCGCAGAAACUGCAAUUUCCUCCACACGAGGAUCACCCGUGUCAGGUAGGUCGCGAGUUAGUCG [ArgBX 29] | 14.9 | 12.8 | 18.6 | 14.7 | 16 |
| UUGUGUUUAUUGGUUUAGCUAUUAUGGUUGCGAGGACCGGUACGGCCGCCACUCGAUGGAACAUGAGGAUCACCCAUGUGAGGAA [JR_ExcTryptoA_Sub013] | 14.7 | 28 | 31.8 | 33.9 | 22.1 |
| UUAAUCUAUAAUGAAAACAUUAUAGCAGAAGGAGCGUGAUAAAACACAGGUAGGUCGCUGAAGGGAACAUGAGGAUCACCCAUGU [AstrosSSArgA#12] | 24.3 | 28.7 | 40.5 | 39.4 | 23.6 |
| CUUACGGGAAACCGACCCAAACAACGGGAAGGAGCGCCAAACAAGGCAGGUAGGUCGCCCACAUGAGGAUCACCCAUGUGUUGGG [Exclusion Arginine A GF 26] | 42.6 | 38 | 47.7 | 42.3 | 45.1 |
| GGAGUCGUCACGGCCGCCACUGCGGUGGUGUGACAUGAGGAUCACCCAUGUUGUCAUGCGGCCCUUAGGACCGGGUGUCGGUUCC [#1 Exclusion - Tryptophan B Attempt #23 (HarryS)] | 57.1 |  | 85.1 | 78.3 |  |
| UUAUUUAUAAAUGAUACCAGCCGAUUGGCCGCAAAUCCUAACAUGAGGAUCACCCAUGUCGGCCCUUGGCAGCAUUUAUGGGUUU [XTheo B #28] | 56 |  | 134 |  | 65.1 |
| UGUCUAGUAAUCGAUACCAGCUACAUGAGGAUCACCCAUGUAGUUCGAACGGCCGCAUGUAGCCCUUGGCAGCGAAUAGUUACAU [Onbitelege] | 14.2 |  | 32.8 |  | 18.7 |
| UUGUUGUUUGGAAGGAGCGUGGAUGAGUUAGAACAUGAGGAUCACCCAUGUUGGAUGAUACCACAGGUAGGUCGCCGGGUGGUGG [11.Z] | 229 | 16.6 | 48.8 | 24.5 | 21.4 |
| UCGACGAUGACCAAAGGUCAGGAGUACGUACGAGGACCGGUACGGCCGCCACUCGAGGAGUGGGACAUGAGGAUCACCCAUGUGG [#20 Exclusion Tryptophan A] | 16.6 | 38.2 | 51.4 | 43.7 | 37.4 |
| GUUGCACAUGAGGAUCACCCAUGUUUGGAUACCAGUCUCUGUAAUGACCCUUGGCAGCCACCAUAGACGCUUGAGUAGAGCCUGA [theeternabot_sameState_MS2_Theo_A_21] | 14.2 |  | 19.4 |  | 15.5 |
| AAAACACAUGAGGAUCACCCAUGUCGUGAUACCAGUCAACAUGAGGACCCUUGGCAGCAUAAAAUGGGUAACAUGAGGAUAACCC [AstrosEXyTheA#3] | 75.4 |  | 105 |  | 101 |
| AUCUCGUUCAAUAUACCGCCUUGACUAGAUACCAGCAUGGACCCAUGCCCUUGGCAGCUGGACAUGAGGAUCACCCAUGUUUCAG [SSTheo A #27] | 10.7 |  | 14.8 |  | 10.8 |
| AUACAUGAGGAUCACCCAUGUCAUUCAGAAGGAGCGUCAUUUUAGACAGGUAGGUCGCUGUUAUUUUUAUUAUUCUUUAUGUUUU [JR_Nu_ExcArginiA_Sub025] | 19.4 | 20.1 | 27.2 | 21.3 | 20.5 |
| UGUAUGGACUGAAGGAGCGGGAAAAUAAGAUGAGGAUCACCCAUCUAAAAGGCGAAAGCCACCCAGGUAGGUCGCAGUCCAUACU | 27.7 | 8.99 | 34.8 | 8.34 | 7.03 |
| AACAUACAAUUUUAGGUGGAUAUAAGGCGGCGAGGACCGGUACGGCCGCCACUCGCGUACAUGAGGAUCACCCAUGUCUGAAGCU [Same State - Tryptophan A (Freestyle 6)] | 12.8 | 21.7 | 21.7 | 27.3 | 21.4 |
| GCUGCCAUACGAAGGAGCGCUGGUGUAAUGAGGCGAACAUGAGGAUCACCCAUGUGGCAUAAGCAGGUAGGUCGCGUAUGGCAGC [EAB #16] | 16.6 | 17.2 | 20.2 | 20.8 | 15.9 |
| AGCCACUCGAGUGAUCCUCACGAGUGGCUACGAGGACCGGUACGGCCGCCACUCGAAUUAACAUGAGGAUCACCCAUGUAAUCUC [Brourdmod06] | 38.7 |  | 238 | 344 |  |
| UGUCGUAGACAUGAGGAUCACCCAUGUCCACGAGGACCGGUACGGCCGCCACUCGGGAUAUAAACCGUUACGGGUGGGUGGUGUU [Maarlainin] | 16 |  | 26 | 21.2 |  |
| UUAAUCUUUAUUGAAAACAAUAAAGCAGAAGGAGCGUGAUAAAACACAGGUAGGUCGCUGAAGGGAACAUGAGGAUCACCCAUGU [AstrosSSArgA#13] | 36.4 | 26.6 | 32 | 35.1 | 24.1 |
| UGUGCAUGAGUUGGAAAAGCUCAUGGGCAUCGAGGACCGGUACGGCCGCCACUCGGCUGUACAUGAGGAUCACCCAUGUCAGGGU [#1 Same State - Tryptophan A Attempt #23 (HarryS)] | 82 | 288 | 141 | 170 | 891 |
| ACAUGAACAUGAGGAUCACCCAUGUAUGAUACCAGAAAAGAAGAGUUCCCUUGGCAGCGUACAACACAUGAGGAUCACCCAUGUG [kvcmullin] | 20.3 |  | 26.7 |  | 26.1 |
| CUCUGGUGCUGAGUGAGUGUCGUGACUGAUACCAGAUGCCUUUACAUCCCUUGGCAGCAGUACAUGAGGAUCACCCAUGUAUUCC [Rireusrama] | 17.2 |  | 33.5 |  | 21.1 |
| ACAUGAGGAUCACCCAUGUAAUUUACAGAAGGAGCGUGAUGGAUCACAGGUAGGUCGCUGUACUGCGAAAGCACUCUCAUGAAUA [JR_Nu_SSArginiA_Sub025] | 18.6 | 16.8 | 25.3 | 19.7 | 19 |
| UACGCUAGGGCGGCCGCCACUCGGACAUGAGGAUCACCCAUGUCGAUUAAUUGAAGGACAUGAAUGAGGACCGGGCUAAGCUAGG [Same State - Tryptophan B / B] | 20.8 | 29.4 | 38.9 | 27.1 | 23.4 |
| UCUUACUAUAGUGAUACCAGACGUACAUGAGGAUCACCCAUGUUACAUUCUUGGUUAAAAGUCCCUUGGCAGCACGAUUUGUUCG [JR_Nu_ExcTheophyB_Sub026] | 9.88 |  | 10.8 |  | 9.76 |
| UUAAUGAUAUAUCAUAUGAUAUAUCCAGAAGGAGCGUCAUAAAUGGCAGGUAGGUCGCUGAAGGCAACAUGAGGAUCACCCAUGU [#16 Same State - Arginine A] | 20.1 | 28.6 | 44.6 | 32.6 | 24.4 |
